Source: patent US20240132571A1 (MEDPACTO, published 2024)
Each block holds one binder with its values, some of them ahead of it.

What was measured:
[1] = target: T1, TM4SF19 in which 3HA was tagged at the N-terminus (human TM4SF19, NP_612470.2 isoform 1) (human, UniProt Q96DZ7 1-209); assay: immunoprecipitation, 3HA- and 3Flag-tagged TM4SF19 in 293T cells
T1 construct: also called 3HA-TM4SF19; TM4SF19 tagged with 3HA in N-terminus; not shown: 3HA tag at the N-terminus
T1 sequence: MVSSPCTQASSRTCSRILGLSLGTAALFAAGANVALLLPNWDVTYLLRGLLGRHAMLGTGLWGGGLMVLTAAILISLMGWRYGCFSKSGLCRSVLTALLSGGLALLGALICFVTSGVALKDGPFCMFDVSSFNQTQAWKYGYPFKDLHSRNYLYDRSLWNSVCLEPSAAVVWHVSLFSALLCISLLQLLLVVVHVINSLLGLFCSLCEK
Excerpt: To confirm whether TM4SF19 is involved in cell-to-cell interactions, HA- or flag-tagged TM4SF19 was manufactured. TM4SF19 in which 3HA was tagged at the N-terminus, a wild-type in which 3Flag was tagged at the N-terminus, and a TM4SF19-deletion mutant were subjected to transient overexpression in 293T cells to confirm binding through immunoprecipitation.

[2] = target: T1, TM4SF19 in which 3HA was tagged at the …; assay: immunoprecipitation, 293T cells
Excerpt: In the same manner as described above, by the transient overexpression of TM4SF19 in which 3HA was tagged at the N-terminus, a wild-type in which 3Flag was tagged at the N-terminus, and a TM4SF19 deletion mutant in 293T cells, binding was confirmed through immunoprecipitation.

- binding result [1]: binds
B1: wild-type TM4SF19 in which 3Flag was tagged at the N-terminus (human TM4SF19) (other)
chain: T1 sequence
notes: Overexpressed in 293T cells (for the integrins: 293T or Raw 264.7 cells) and tested by immunoprecipitation; also called 3Flag-hTM4SF19; TM4SF19 wt; not shown: 3Flag tag at the N-terminus

- binding result [2]: no binding
B2: hTM4SF19 94-196Δ (3Flag-tagged deletion mutant lacking transmembrane 3, extracellular region 2 and transmembrane 4) (other)
chain: MVSSPCTQASSRTCSRILGLSLGTAALFAAGANVALLLPNWDVTYLLRGLLGRHAMLGTGLWGGGLMVLTAAILISLMGWRYGCFSKSGLCRSNSLLGLFCSLCEK
notes: the kept ranges are worked out from the printed deletion limits; not shown: 3Flag tag

- binding result [2]: binds
B3: hTm4sf19 94-196 (only aa 94-196 of hTM4SF19 remains, other sequences deleted) (other)
chain: VLTALLSGGLALLGALICFVTSGVALKDGPFCMFDVSSFNQTQAWKYGYPFKDLHSRNYLYDRSLWNSVCLEPSAAVVWHVSLFSALLCISLLQLLLVVVHVI
notes: Expresses transmembrane 3, extracellular region 2 (EC2) and transmembrane 4 of TM4SF19; overexpressed in 293T cells; not shown: tag not expressly stated for this mutant (the other mutants carry 3Flag)
